Test results taken from paper PMC6265302, “Widespread bacterial lysine degradation proceeding via glutarate and L-2-hydroxyglutarate” (Nature Communications, 2018).

What was measured:
Settings in all cases: Filter binding: 50 mM Tris-HCl, 100 mM KCl, 50 mM NaCl, 5 mM MgCl2, pH 7.6, 15 min, footprint: 50 mM MOPS, 100 mM NaCl, 20 mM KCl, 2.5 mM MgCl2, 0.1 mM DTT
[1] = biological target: T1, CsiR (Escherichia coli BW25113 (K-12)) (UniProt P37338); test: SPR
T1 sequence: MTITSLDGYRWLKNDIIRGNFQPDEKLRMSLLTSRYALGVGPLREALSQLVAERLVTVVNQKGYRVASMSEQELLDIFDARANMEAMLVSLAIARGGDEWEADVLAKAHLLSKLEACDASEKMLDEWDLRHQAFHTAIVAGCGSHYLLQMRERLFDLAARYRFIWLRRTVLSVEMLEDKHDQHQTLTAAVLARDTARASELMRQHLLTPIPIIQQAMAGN

[2] = system: CsiR (Escherichia coli BW25113 (K-12)); test: SPR
[3] = biological target: T1, CsiR (Escherichia coli BW25113 (K-12)); test: hydroxyl radical footprinting

CTTTTGTGCGCATTTTTCAGAAATGTAGATATTTTTAGATTATGGCTACGAAATGAG (double strand) [csiD 5'-UTR/promoter PCR product MS177/MS178]
Kd [1]: 10 nM

csiD 5'-UTR/promoter PCR product MS177/MS178
Kd [2]: 10 nM

TATGAGATGTAGGGTGACATGGCGATGCTCATTTCGTAGCCATAATCTAAAAATATCTACATTTCTGAAAAATGCGCACAAAAGCGACATATTGTTTTCTTATTGTGATCAAAAGCAACA (double strand) [csiD promoter PCR product MS170/MS171]
binding [3]: binds
